Reference: the DeepSol protein solubility set

Test: soluble on expression in E. coli; label from the status in PepcDB or PDB records

| Sequence | soluble on expression in E. coli |
| --- | --- |
| MSLRLLPQPQQCVLAKGYFIVGKMQLSTPVLSQEWKQFVTEMGGTLTDQSASSINIKLVDAIDNVSVNKEEAYRLTITPKAITVEAVAERGVYWAMQTLYQLKEEKGKKNRLQCATITDWPAFRIRGFMQDVGRSYLSLEELKREIAILSRFKINTFHWHLTENQAWRLESKIFPMLNDSTNMTRMAGKYYTLEEARELTEFCKAHQVLLIPEIDMPGHSAAFIRTFRHDMQSPEGMKILKLLLDEICETFDVPYLHIGTDEVHFTNPQFVPEMVAYVRDKGKKVISWNPGWKYKAGEIDMMQLWSYRGKAQQGIPAIDSRFHYLNHFDTFGDIIALYNSRIYNADMGSDDLAGVIMGIWNDRLIDKEWNMVLENNFYPNMLAIAERSWRGGGTEYFDKQGTILPVDENSEVFRNFEDFESRMLWYKEHLFKGYPFAYVKQTHVKWNITDAFPNEGDLTKVFPPEEELKDSYTYEGKQYGVRPAIGAGIYLRHVWGKIVPAFYKDPQENHTAYAYTYVYSSKTQEVGLWAEFQNYGRSENDLPPLPGKWDYKESRIWINDQEILPPVWSATHLVKSSETALGNENCVARPPLRVHLHKGWNKVLLKLPVGKFSTNEVRLVKWMFTAVFVTPDGDKAVEGLIYSPEKEGHHHHHH | soluble |
| MSLDIRGIGYLGFESPNIEAWRSYGPEVLGLAIAPSPEDEPDALYLKMDDRRYRLAFQPGPIDKLAYIGWECVNRIAFEKAVKKLQDAGIAVEMGSDDLKARRAVRDVVRFKDPVGYQYELFYGQKGEPDSFVPGRRHGGFNTYGRGFGHVVVMTPEYGPELDDFLINIMGFQWYGSGAGKGKTGFYRAGLNNLTSHDIGYGHAPGRMGIQHIGLLTGDLRDVGETWDIVNKRQIQVQMTLGQHTQDPHFSFYHFSPSGFAVEVIAETHPWPGDPFELNAERLSYWGHQLVGPILGTEGHHHHHH | not soluble |
| MGSDKIHHHHHHMPKSVQDDAIEAGTLLSVQGLTVGLPPGMDRRYAVEDMSFDLKAGEILCIIGESGSGKSVTANATMGLLAQSLHIVSGSIMLEGQELVGADAATLRALRGRIVSMIFQDPLSALNPLMTVGDQIAEVMEAHGIGTQQERRARVLDLITEVGLPDPELMQHQYPFRLSGGQRQRVMIAMALALEPKVLIADEPTTALDVTTQAQILELIASIQRRKQMSVMFITHDFGVVAEIADRVIVMEKGHVVEQGSASVVLKSPDHPYTQRLIAAVPRMRASDRENEADTPVVLEARNLCKTYGTGSGFLSKGRVIKAVDDVSFTIAKGRTLGIVGESGSGKSSLGRLLVKLMNSDSGEILFGGRDIAPLSEEAFRSMRPYIQMIFQDPFASLNPRQTIGRILTVGPVAQATPIHEARTRAMRLLERVGLDAGAYDRYPHEFSGGQRQRIGIARALMFNPMLIVADEAVSALDVSIQAQILQLLTEVQQEMKLAMAFITHDLRVASQICDEIAVMYKGRIVEYGPPSQIFRNPTHDYTRQLVSAIPGTEWEPAVMV | not soluble |
| MGSDKIHHHHHHMSHKPSAEDKEKSKLTKEEWRDYTKTVWSIANTSHEDHPAVFPLEIPHRLTKLFSFYGETVLDPFAGTGTTARAAIPLGRRAICVDQNADYTEIIKKDCAKLRNGHGADFEPLVVVNGDSRKMDFVESDSVGLVVTSPPYWNKADYGDSKRNLGTIERYSDFIEGIRPVFEECYRILTPGRKLCVVTANVNQHTDHGLLTFPLATDFAVLLRQIGFVMINEIIWSKDATGGKWGSYGAQRPIFGSYPYPPNFLFKNVHEYILIFAKPPRTKTTGPKVQPYKKLVEGLTGGIMEPDSLPAYAQAFRQQ | not soluble |
| TGEESLQQVAMRASRLGLPKEHLKMLSETNVDKICQIAEKEQPRIMVIDSIQVMHVSDVQSSPGSVAQVRESATALTRYAKQNNVAVFIVGHVTKDGTLAGPKVLEHIIDCSVLLDGGTDSRFRTLRSHKNRFGAVNELGVFAMTGQGLKEVSNPSAIFLSRGEEETSGSSVMVVWEGTRPLLVEIQALVDYSQLANPRRVAVGLEQNRLSLLLAVLHKHGGLQMADQDVFVNVVGGV | not soluble |
| MKKVGEYFLDPNLDPGRDHILYKDDEHMVIYLGTQEGLEDVDVNSYLIVSKGKGILIDPGGYKIFTKVLANVSKYIDPKDIEYIYMCHQDPDVAGSIPLWREISNAKIIIHWLWVRFLPHFGFENIRGYAHELQDEGETLNFGATTLEFIPAHFLHSPGHFTVYDRRSKFLFSGDIGIAFPDERYLVVENMERHIQYMRPLHERLMASNKALRLWVNKVRGLDIEAILPQHGAIIPRRFVPRFLDWLENLKVGVDLMR | soluble |
